This note sets out measurements from publication PMC4339808.

The target of this experiment is 70S ribosome (vacant) (E. coli MRE600).
Regarding “Elongation Factor 4 (EF4/LepA), wild type (from UniProt P60785 1-599) (enzyme)”, the KM of the 70S ribosome-stimulated multiple turnover GTPase activity (0.01 uM protein, 100 uM GTP, 0 to 8 uM 70S) amounted to 0.32 µM.

For the substance “EF4 ΔP520 (from UniProt P60785 1-520) (domain or fragment)”, the KM of the 70S ribosome-stimulated multiple turnover GTPase activity (0.01 uM protein, 100 uM GTP, 0 to 8 uM 70S) is 10 µM.

In the case of “EF4 ΔA494 (from UniProt P60785 1-494) (domain or fragment)”, the KM of the 70S ribosome-stimulated multiple turnover GTPase activity (0.01 uM protein, 100 uM GTP, 0 to 8 uM 70S) stood at 36 µM.

In the case of “EF4 ΔG555 (from UniProt P60785 1-555) (domain or fragment)”, the KM of the 70S ribosome-stimulated multiple turnover GTPase activity (0.01 uM protein, 100 uM GTP, 0 to 8 uM 70S) was found to be 7 µM.
